This data set has as its target T1, GFP-UTP15 IDR (UniProt Q8C7V3 314-528).
T1 sequence: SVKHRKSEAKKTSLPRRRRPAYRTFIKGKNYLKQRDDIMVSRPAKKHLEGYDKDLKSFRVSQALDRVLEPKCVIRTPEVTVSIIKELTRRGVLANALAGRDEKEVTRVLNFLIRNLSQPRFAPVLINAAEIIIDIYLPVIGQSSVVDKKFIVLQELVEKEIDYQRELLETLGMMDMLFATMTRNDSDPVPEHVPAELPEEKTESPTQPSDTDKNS
As to the kind of experiment: EMSA. (A gel shift assay detects complexes by their altered migration in electrophoresis.)

On to UCGUGUCUCGCUUGACCAUGUUCCCAGAGUCGGUGGAUGU (ssRNA) [5'ETS RNA probe], for which the binding result is reported as “binds”.
